# Results: IntAct's records for PubMed 31515488
# B1: Oxidative stress-induced growth inhibitor 1 (Homo sapiens), Q9UJX0 (parent)
# chain: MSSSRKDHLGASSSEPLPVIIVGNGPSGICLSYLLSGYTPYTKPDAIHPHPLLQRKLTEAPGVSILDQDLDYLSEGLEGRSQSPVALLFDALLRPDTDFGGNMKSVLTWKHRKEHAIPHVVLGRNLPGGAWHSIEGSMVILSQGQWMGLPDLEVKDWMQKKRRGLRNSRATAGDIAHYYRDYVVKKGLGHNFVSGAVVTAVEWGTPDPSSCGAQDSSPLFQVSGFLTRNQAQQPFSLWARNVVLATGTFDSPARLGIPGEALPFIHHELSALEAATRVGAVTPASDPVLIIGAGLSAADAVLYARHYNIPVIHAFRRAVDDPGLVFNQLPKMLYPEYHKVHQMMREQSILSPSPYEGYRSLPRHQLLCFKEDCQAVFQDLEGVEKVFGVSLVLVLIGSHPDLSFLPGAGADFAVDPDQPLSAKRNPIDVDPFTYQSTRQEGLYAMGPLAGDNFVRFVQGGALAVASSLLRKETRKPP
# partner: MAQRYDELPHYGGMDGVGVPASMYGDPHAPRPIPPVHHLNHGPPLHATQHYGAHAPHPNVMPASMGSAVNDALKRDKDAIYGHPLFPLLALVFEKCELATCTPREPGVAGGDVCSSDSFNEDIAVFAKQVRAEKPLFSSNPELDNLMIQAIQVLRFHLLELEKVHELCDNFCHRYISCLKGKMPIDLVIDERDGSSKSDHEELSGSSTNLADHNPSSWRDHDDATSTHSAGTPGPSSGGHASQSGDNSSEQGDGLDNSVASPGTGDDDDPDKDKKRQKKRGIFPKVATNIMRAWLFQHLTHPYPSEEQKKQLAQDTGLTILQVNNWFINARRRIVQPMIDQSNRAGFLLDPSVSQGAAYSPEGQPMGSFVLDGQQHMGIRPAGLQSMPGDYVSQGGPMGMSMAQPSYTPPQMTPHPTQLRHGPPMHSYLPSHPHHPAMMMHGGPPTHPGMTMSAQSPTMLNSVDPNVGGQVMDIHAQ
# B2: Keratin-associated protein 5-9 (Homo sapiens), P26371 (parent)
# chain: MGCCGCSGGCGSSCGGCDSSCGSCGSGCRGCGPSCCAPVYCCKPVCCCVPACSCSSCGKRGCGSCGGSKGGCGSCGCSQCSCCKPCCCSSGCGSSCCQCSCCKPYCSQCSCCKPCCSSSGRGSSCCQSSCCKPCCSSSGCGSSCCQSSCCKPCCSQSRCCVPVCYQCKI
# partner: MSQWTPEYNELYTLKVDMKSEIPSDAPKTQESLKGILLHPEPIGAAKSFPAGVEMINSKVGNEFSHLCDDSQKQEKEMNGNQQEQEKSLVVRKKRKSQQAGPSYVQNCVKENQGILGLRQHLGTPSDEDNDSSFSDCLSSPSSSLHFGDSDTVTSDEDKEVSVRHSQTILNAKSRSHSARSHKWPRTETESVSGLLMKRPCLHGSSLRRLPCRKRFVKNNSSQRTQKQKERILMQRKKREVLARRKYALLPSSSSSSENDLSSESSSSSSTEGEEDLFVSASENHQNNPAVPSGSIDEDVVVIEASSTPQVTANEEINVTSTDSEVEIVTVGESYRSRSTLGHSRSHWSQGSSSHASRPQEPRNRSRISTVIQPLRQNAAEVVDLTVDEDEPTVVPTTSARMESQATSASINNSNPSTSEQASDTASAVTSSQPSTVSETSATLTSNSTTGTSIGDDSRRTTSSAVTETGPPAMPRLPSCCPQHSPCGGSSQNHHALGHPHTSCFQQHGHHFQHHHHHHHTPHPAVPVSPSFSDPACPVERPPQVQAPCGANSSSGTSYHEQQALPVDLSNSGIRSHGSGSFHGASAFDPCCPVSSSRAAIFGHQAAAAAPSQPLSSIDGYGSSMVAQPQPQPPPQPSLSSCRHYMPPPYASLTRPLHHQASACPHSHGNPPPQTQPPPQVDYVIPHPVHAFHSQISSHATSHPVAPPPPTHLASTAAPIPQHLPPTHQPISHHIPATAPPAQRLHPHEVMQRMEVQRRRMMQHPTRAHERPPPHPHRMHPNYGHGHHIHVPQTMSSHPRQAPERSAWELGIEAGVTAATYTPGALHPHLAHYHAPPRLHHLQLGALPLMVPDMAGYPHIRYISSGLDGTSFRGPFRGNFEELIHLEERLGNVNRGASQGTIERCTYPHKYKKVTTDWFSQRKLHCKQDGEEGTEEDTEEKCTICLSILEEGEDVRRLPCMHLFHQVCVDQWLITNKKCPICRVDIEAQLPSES
# B3: TBC1 domain family member 7 (Homo sapiens), Q9P0N9 (parent)
# chain: MTEDSQRNFRSVYYEKVGFRGVEEKKSLEILLKDDRLDTEKLCTFSQRFPLPSMYRALVWKVLLGILPPHHESHAKVMMYRKEQYLDVLHALKVVRFVSDATPQAEVYLRMYQLESGKLPRSPSFPLEPDDEVFLAIAKAMEEMVEDSVDCYWITRRFVNQLNTKYRDSLPQLPKAFEQYLNLEDGRLLTHLRMCSAAPKLPYDLWFKRCFAGCLPESSLQRVWDKVVSGSCKILVFVAVEILLTFKIKVMALNSAEKITKFLENIPQDSSDAIVSKAIDLWHKHCGTPVHSS
# partner: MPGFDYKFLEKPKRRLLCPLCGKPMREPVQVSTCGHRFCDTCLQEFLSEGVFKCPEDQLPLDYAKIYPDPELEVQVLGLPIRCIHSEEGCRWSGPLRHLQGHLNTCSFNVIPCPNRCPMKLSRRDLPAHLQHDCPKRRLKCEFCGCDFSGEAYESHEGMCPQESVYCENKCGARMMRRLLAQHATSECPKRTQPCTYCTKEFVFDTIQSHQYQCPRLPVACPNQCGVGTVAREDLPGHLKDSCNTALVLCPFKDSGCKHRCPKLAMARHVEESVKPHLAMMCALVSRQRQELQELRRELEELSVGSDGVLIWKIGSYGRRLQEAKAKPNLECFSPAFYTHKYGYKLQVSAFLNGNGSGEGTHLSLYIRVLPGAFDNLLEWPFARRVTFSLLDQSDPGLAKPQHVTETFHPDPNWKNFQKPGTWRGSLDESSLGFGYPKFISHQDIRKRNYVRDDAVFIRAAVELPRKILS
# B4: Serine/threonine-protein kinase PAK 5 (Homo sapiens), Q9P286 (parent)
# chain: MFGKKKKKIEISGPSNFEHRVHTGFDPQEQKFTGLPQQWHSLLADTANRPKPMVDPSCITPIQLAPMKTIVRGNKPCKETSINGLLEDFDNISVTRSNSLRKESPPTPDQGASSHGPGHAEENGFITFSQYSSESDTTADYTTEKYREKSLYGDDLDPYYRGSHAAKQNGHVMKMKHGEAYYSEVKPLKSDFARFSADYHSHLDSLSKPSEYSDLKWEYQRASSSSPLDYSFQFTPSRTAGTSGCSKESLAYSESEWGPSLDDYDRRPKSSYLNQTSPQPTMRQRSRSGSGLQEPMMPFGASAFKTHPQGHSYNSYTYPRLSEPTMCIPKVDYDRAQMVLSPPLSGSDTYPRGPAKLPQSQSKSGYSSSSHQYPSGYHKATLYHHPSLQSSSQYISTASYLSSLSLSSSTYPPPSWGSSSDQQPSRVSHEQFRAALQLVVSPGDPREYLANFIKIGEGSTGIVCIATEKHTGKQVAVKKMDLRKQQRRELLFNEVVIMRDYHHDNVVDMYSSYLVGDELWVVMEFLEGGALTDIVTHTRMNEEQIATVCLSVLRALSYLHNQGVIHRDIKSDSILLTSDGRIKLSDFGFCAQVSKEVPKRKSLVGTPYWMAPEVISRLPYGTEVDIWSLGIMVIEMIDGEPPYFNEPPLQAMRRIRDSLPPRVKDLHKVSSVLRGFLDLMLVREPSQRATAQELLGHPFLKLAGPPSCIVPLMRQYRHH
# Variants of: B1
# Details: with meis2_human MEIS2, O14770
row,effect of a mutation on the interaction,Variant
1,with no effect,D320N

# Variants of: B2
# Details: with rn111_human RNF111, Q6ZNA4
row,effect of a mutation on the interaction,Variant
1,with no effect,Y40C

# Variants of: B3
# Details: with traf4_human TRAF4, Q9BUZ4
row,effect of a mutation on the interaction,Variant
1,with no effect,L67W

# Variants of: B4
# Details: with uxt_human UXT
row,effect of a mutation on the interaction,Variant
1,with no effect,R335P

# Variants of: B4
# Details: with crbn_human CRBN
row,effect of a mutation on the interaction,Variant
1,with no effect,R335P

# Variants of: B4
# Details: with gcp4_human TUBGCP4, Q9UGJ1
# gcp4_human TUBGCP4, Q9UGJ1, sequence (Q9UGJ1 whole entry): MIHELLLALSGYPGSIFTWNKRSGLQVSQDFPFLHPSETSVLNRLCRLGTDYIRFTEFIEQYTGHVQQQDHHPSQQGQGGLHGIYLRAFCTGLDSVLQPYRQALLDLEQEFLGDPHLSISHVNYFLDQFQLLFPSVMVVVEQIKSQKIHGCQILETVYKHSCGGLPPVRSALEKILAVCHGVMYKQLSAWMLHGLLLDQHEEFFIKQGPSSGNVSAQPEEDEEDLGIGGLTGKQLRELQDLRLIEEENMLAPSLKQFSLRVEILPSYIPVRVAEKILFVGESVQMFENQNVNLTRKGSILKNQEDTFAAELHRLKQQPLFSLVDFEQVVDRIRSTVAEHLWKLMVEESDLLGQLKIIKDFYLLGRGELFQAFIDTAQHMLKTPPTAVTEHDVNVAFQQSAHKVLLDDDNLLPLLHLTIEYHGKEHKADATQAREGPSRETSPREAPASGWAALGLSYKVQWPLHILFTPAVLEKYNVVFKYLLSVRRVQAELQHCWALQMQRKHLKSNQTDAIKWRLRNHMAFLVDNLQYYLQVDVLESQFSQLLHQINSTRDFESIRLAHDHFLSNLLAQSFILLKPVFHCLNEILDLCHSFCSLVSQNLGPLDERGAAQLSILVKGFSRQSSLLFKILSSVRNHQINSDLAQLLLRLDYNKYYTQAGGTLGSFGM
row,effect of a mutation on the interaction,Variant
1,with no effect,R335P
